Measured values: patent US20240011017A1 (Genentech, published 2024)

B1: FLRT3 (in supernatants) (receptor)
chain: KSCPSVCRCDAGFIYCNDRFLTSIPTGIPEDATTLYLQNNQINNAGIPSDLKNLLKVERIYLYHNSLDEFPTNLPKYVKELHLQENNIRTITYDSLSKIPYLEELHLDDNSVSAVSIEEGAFRDSNYLRLLFLSRNHLSTIPWGLPRTIEELRLDDNRISTISSPSLQGLTSLKRLVLDGNLLNNHGLGDKVFFNLVNLTELSLVRNSLTAAPVNLPGTNLRKLYLQDNHINRVPPNAFSYLRQLYRLDMSNNNLSNLPQGIFDDLDNITQLILRNNPWYCGCKMKWVRDWLQSLPVKVNVRGLMCQAPEKVRGMAIKDLNAELFDCKDSGIVSTIQITTAIPNTVYPAQGQWPAPVTKQPDIKNPKLTKDHQTTGSPSRKTITITVKSVTSDTIHISWKLALPMTALRLSWLKLGHSPAFGSITETIVTGERSEYLVTALEPDSPYKVCMVPMETSNLYLFDETPVCIETETAPLRMYNPTTTLNREQEKEPYKNPNLP
B2: ICAM1 expressed on cells (gD-GPI construct or full-length protein) (receptor)
chain: QTSVSPSKVILPRGGSVLVTCSTSCDQPKLLGIETPLPKKELLLPGNNRKVYELSNVQEDSQPMCYSNCPDGQSTAKTFLTVYWTPERVELAPLPSWQPVGKNLTLRCQVEGGAPRANLTVVLLRGEKELKREPAVGEPAEVTTTVLVRRDHHGANFSCRTELDLRPQGLELFENTSAPYQLQTFVLPATPPQLVSPRVLEVDTQGTVVCSLDGLFPVSEAQVHLALGDQRLNPTVTYGNDSFSAKASVSVTAEDEGTQRLTCAVILGNQSQETLQTVTIYSFPAPNVILTKPEVSEGTEVTVKCEAHPRAKVTLNGVPAQPLGPRAQLLLKATPEDNGRSFSCSATLEVAGQLIHKNQTRELRVLYGPRLDERDCPGNWTWPENSQQTPMCQAWGNPLPELKCLKDGTFPLPIGESVTVTRDLEGTYLCRARSTQGEVTRKVTVNVLSPRYEIVIITVVAAAVIMGTAGLSTYLYNRQRKIKKYRLQQAQKGTPMKPNTQATPP
notes: whole, on cells
B3: HAVCR1 expressed on cells (gD-GPI construct or full-length protein) (receptor)
chain: SVKVGGEAGPSVTLPCHYSGAVTSMCWNRGSCSLFTCQNGIVWTNGTHVTYRKDTRYKLLGDLSRRDVSLTIENTAVSDSGVYCCRVEHRGWFNDMKITVSLEIVPPKVTTTPIVTTVPTVTTVRTSTTVPTTTTVPMTTVPTTTVPTTMSIPTTTTVLTTMTVSTTTSVPTTTSIPTTTSVPVTTTVSTFVPPMPLPRQNHEPVATSPSSPQPAETHPTTLQGAIRREPTSSPLYSYTTDGNDTVTESSDGLWNNNQTQLFLEHSLLTANTTKGIYAGVCISVLVLLALLGVIIAKKYFFKKEVQQLSVSFSSLQIKALQNAVEKEVQAEDNIYIENSLYATD
notes: whole, on cells
B4: VZV protein gB, soluble (captured on beads or assayed directly in supernatants) (other)
chain: VSPSSFYESLQVEPTQSEDITRSAHLGDGDEIREAIHKSQDAETKPTFYVCPPPTGSTIVRLEPTRTCPDYHLGKNFTEGIAVVYKENIAAYKFKATVYYKDVIVSTAWAGSSYTQITNRYADRVPIPVSEITDTIDKFGKCSSKATYVRNNHKVEAFNEDKNPQDMPLIASKYNSVGSKAWHTTNDTYMVAGTPGTYRTGTSVNCIIEEVEARSIFPYDSFGLSTGDIIYMSPFFGLRDGAYREHSNYAMDRFHQFEGYRQRDLDTRALLEPAARNFLVTPHLTVGWNWKPKRTEVCSLVKWREVEDVVRDEYAHNFRFTMKTLSTTFISETNEFNLNQIHLSQCVKEEARAIINRIYTTRYNSSHVRTGDIQTYLARGGFVVVFQPLLSNSLARLYLQELVRENTNHSPQKHPTRNTRSRRSVPVELRANRTITTTSSVEFAMLQFTYDHIQEHVNEMLARISSSWCQLQNRERALWSGLFPINPSALASTILDQRVKARILGDVISVSNCPELGSDTRIILQNSMRVSGSTTRCYSRPLISIVSLNGSGTVEGQLGTDNELIMSRDLLEPCVANHKRYFLFGHHYVYYEDYRYVREIAVHDVGMISTYVDLNLTLLKDREFMPLQVYTRDELRDTGLLDYSEIQRRNQMHSLRFYDIDKVVQYDSGTAIMQGMAQFFQGLGTAGQAVGHVVLGATGALLSTVHGFTTFLSNP
notes: also called VZV gB
B5: LILRB1 (in supernatants) (receptor)
chain: GHLPKPTLWAEPGSVITQGSPVTLRCQGGQETQEYRLYREKKTALWITRIPQELVKKGQFPIPSITWEHAGRYRCYYGSDTAGRSESSDPLELVVTGAYIKPTLSAQPSPVVNSGGNVILQCDSQVAFDGFSLCKEGEDEHPQCLNSQPHARGSSRAIFSVGPVSPSRRWWYRCYAYDSNSPYEWSLPSDLLELLVLGVSKKPSLSVQPGPIVAPEETLTLQCGSDAGYNRFVLYKDGERDFLQLAGAQPQAGLSQANFTLGPVSRSYGGQYRCYGAHNLSSEWSAPSDPLDILIAGQFYDRVSLSVQPGPTVASGENVTLLCQSQGWMQTFLLTKEGAADDPWRLRSTYQSQKYQAEFPMGPVTSAHAGTYRCYGSQSSKPYLLTHPSDPLELVVSGPSGGPSSPTTGPTSTSGPEDQPLTPTGSDPQSGLGRHLGV

What was measured:
[1] = target: T1, HHV8 protein KCP expressed on cells (gD-GPI construct or full-length protein) (Human herpesvirus 8, UniProt Q2HRD4 20-522); assay: cell-based immunofluorescence validation (FIG. 17): receptor in supernatants, KCP on cells
T1 construct: also called HHV8 KCP
T1 sequence: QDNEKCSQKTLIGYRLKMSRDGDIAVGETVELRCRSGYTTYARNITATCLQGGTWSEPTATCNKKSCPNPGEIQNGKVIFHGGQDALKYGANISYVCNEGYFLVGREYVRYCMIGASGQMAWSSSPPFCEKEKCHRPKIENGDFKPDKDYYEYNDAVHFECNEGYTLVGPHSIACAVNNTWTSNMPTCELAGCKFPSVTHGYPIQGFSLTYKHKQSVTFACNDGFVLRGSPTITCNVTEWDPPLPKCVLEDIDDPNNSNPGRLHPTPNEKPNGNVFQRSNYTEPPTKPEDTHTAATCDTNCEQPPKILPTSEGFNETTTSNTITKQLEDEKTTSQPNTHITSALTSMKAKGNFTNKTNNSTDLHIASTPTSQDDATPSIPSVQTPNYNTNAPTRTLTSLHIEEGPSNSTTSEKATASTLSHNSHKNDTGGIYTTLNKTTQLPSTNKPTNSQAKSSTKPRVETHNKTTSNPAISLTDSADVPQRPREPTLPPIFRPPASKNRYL

[2] = target: T2, VZV protein gC, soluble (captured on beads or assayed directly in supernatants) (Varicella zoster virus, UniProt P09256 54-559); assay: cell-based immunofluorescence validation (FIGS. 14B and 22): soluble gC on cells with ICAM1
T2 construct: also called VZV gC
T2 sequence: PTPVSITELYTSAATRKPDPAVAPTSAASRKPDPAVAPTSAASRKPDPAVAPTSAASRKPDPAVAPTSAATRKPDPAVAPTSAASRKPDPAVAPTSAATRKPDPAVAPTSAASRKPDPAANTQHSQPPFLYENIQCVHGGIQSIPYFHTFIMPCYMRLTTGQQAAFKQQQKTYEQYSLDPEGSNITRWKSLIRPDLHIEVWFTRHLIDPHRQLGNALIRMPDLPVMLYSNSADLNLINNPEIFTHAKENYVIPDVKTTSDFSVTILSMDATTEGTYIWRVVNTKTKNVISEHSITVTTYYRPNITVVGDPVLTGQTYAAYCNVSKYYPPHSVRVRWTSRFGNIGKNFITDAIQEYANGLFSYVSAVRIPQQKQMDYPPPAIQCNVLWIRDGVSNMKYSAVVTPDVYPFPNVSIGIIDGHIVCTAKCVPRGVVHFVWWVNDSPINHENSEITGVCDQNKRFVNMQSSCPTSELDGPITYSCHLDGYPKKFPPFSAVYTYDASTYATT

[3] = target: B4; assay: cell-based immunofluorescence validation (FIG. 16): gB on beads or in supernatants, HAVCR1 on cells
[4] = target: T3, MUSK expressed on cells (gD-GPI construct or full-length protein) (human, UniProt O15146 24-869); assay: cell-based immunofluorescence validation (FIG. 15): gB on beads or in supernatants, MUSK on cells
T3 construct: whole, on cells
T3 sequence: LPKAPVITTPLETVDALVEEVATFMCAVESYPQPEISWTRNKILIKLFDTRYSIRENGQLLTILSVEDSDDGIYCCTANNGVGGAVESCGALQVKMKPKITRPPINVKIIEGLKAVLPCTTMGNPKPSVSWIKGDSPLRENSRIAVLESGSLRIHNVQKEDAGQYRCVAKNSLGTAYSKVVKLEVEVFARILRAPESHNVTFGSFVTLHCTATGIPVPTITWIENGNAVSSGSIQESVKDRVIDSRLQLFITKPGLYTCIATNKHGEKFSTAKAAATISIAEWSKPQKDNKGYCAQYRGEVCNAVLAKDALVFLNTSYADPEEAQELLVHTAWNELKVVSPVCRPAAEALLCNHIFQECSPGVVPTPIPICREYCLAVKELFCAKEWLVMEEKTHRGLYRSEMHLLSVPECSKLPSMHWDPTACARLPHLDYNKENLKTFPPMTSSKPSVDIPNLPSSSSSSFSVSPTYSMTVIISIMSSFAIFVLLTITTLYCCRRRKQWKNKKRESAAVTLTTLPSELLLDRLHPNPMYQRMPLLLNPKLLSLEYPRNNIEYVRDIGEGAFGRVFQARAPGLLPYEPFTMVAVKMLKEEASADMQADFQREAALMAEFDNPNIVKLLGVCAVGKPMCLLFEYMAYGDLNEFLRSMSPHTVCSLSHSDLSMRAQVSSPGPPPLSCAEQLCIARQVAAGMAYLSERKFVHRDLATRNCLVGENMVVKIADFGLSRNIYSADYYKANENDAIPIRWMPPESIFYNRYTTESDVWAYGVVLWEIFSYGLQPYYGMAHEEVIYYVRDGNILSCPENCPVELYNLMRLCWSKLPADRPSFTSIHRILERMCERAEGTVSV

Binder: B1
- binding result [1]: binds

Binder: B2
- binding result [2]: binds

Binder: B3
- binding result [3]: binds

Binder: B4
- binding result [4]: binds

Binder: B5
- binding result [1]: binds
